{"source": "patent US20110217282", "about": "“Novel Toxin-Antitoxin System” (UNIVERSITY OF MEDICINE AND DENTISTRY OF NEW JERSEY, published 2011)", "binders": {"B1": {"name": "mqsR-ygiT palindrome 2 (dsDNA)", "DNA 1": "CCCAATTAACCTTTTAGGTTATAACCC", "DNA 2": "GGGTTATAACCTAAAAGGTTAATTGGG"}, "B2": {"name": "mqsR-ygiT palindrome 1 (dsDNA)", "DNA 1": "CCCCTAACTAACCTTTTAGGTGCTTTTCCCC", "DNA 2": "GGGGAAAAGCACCTAAAAGGTTAGTTAGGGG"}}, "key": {"[1]": {"target": "MqsR (Escherichia coli, UniProt Q46865 SEQ:1-98)", "sequence (Q46865 whole entry)": "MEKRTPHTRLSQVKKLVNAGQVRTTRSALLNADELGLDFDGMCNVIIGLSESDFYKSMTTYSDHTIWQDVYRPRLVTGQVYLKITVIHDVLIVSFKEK", "test": "EMSA; no binding up to 80 nM", "conditions": "chain copies: 2 inferred; label: 5'-32P"}, "[2]": {"target": "T1, MqsR-YgiT complex (Escherichia coli, UniProt Q46865;Q46864 SEQ:1-98,SEQ:1-131)", "T1 sequence (Q46865 whole entry, chain 1 of 2)": "as the sequence (Q46865 whole entry) above", "T1 sequence (Q46864 whole entry, chain 2 of 2)": "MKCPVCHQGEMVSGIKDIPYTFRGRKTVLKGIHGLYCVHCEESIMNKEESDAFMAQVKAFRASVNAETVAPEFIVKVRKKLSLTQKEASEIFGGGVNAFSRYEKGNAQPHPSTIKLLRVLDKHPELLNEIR", "test": "EMSA; shift from 10 nM; stronger than YgiT alone; MqsR:YgiT 2:1", "conditions": "tags: N-terminal His on MqsR; chain copies: 4 MqsR + 2 YgiT inferred; label: 5'-32P"}, "[3]": {"target": "T2, YgiT (Escherichia coli, UniProt Q46864 SEQ:1-131)", "T2 sequence (Q46864 whole entry)": "as the sequence (Q46864 whole entry, chain 2 of 2) above", "test": "EMSA; shift at 20 nM and higher, none at 5 nM; 50 mM Tris-HCl pH 7.2, 50 mM KCl, poly(dI-dC), 4 C", "conditions": "tags: C-terminal His; chain copies: 2 inferred; label: 5'-32P"}, "[4]": {"target": "T1, MqsR-YgiT complex", "test": "EMSA; shift from 5 nM; stronger than YgiT alone; MqsR:YgiT 2:1", "conditions": "tags: N-terminal His on MqsR; chain copies: 4 MqsR + 2 YgiT inferred; label: 5'-32P"}, "[5]": {"target": "T2, YgiT", "test": "EMSA; shift at 10 nM and higher, none at 5 nM; 50 mM Tris-HCl pH 7.2, 50 mM KCl, poly(dI-dC), 4 C", "conditions": "tags: C-terminal His; chain copies: 2 inferred; label: 5'-32P"}}}
{"binder": "B1", "values": [{"measurement": "binding result", "setting": "[1]", "value": "no binding"}, {"measurement": "binding result", "setting": "[2]", "value": "binds"}, {"measurement": "binding result", "setting": "[3]", "value": "binds"}]}
{"binder": "B2", "values": [{"measurement": "binding result", "setting": "[1]", "value": "no binding"}, {"measurement": "binding result", "setting": "[4]", "value": "binds"}, {"measurement": "binding result", "setting": "[5]", "value": "binds"}]}
